Data on nine molecules can be found in paper PMC8494293, “Relief of ParB autoinhibition by parS DNA catalysis and recycling of ParB by CTP hydrolysis promote bacterial centromere assembly” (Science Advances, 2021).

Data set [1] addresses T1, ParB (Bacillus subtilis, UniProt P26497).
T1 construct: gene spo0J; full-length, untagged
T1 sequence (P26497 1-282): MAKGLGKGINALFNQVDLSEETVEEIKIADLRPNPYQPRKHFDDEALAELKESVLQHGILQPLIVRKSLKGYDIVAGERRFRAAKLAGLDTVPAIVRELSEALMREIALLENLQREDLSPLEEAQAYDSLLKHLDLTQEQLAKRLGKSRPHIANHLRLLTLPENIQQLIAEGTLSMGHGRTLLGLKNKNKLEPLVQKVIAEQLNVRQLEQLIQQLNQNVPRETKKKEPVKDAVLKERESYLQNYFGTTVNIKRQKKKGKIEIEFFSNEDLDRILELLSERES
Nature of the data set: BLI of ParB loading on and dissociation from parS DNA with nucleotide; N-gate cross-linking. The data set is classed as biochemical.

Data set [2] concerns the target T2, ParB(E111Q) (Bacillus subtilis, UniProt P26497, E111Q).
T2 construct: gene spo0J; full-length, untagged
T2 sequence (P26497 1-282 E111Q): T1 sequence (P26497 1-282) with E111Q
Nature of the data set: N-gate closure by BMOE cross-linking (T22C); BLI DNA loading. The data set is classed as biochemical.

Data set [3] concerns the target T3, ParB(E78Q) (Bacillus subtilis, UniProt P26497, E78Q).
T3 construct: gene spo0J; full-length, untagged
T3 sequence (P26497 1-282 E78Q): T1 sequence (P26497 1-282) with E78Q
Described as above. The data set is classed as biochemical.

Data set [4] addresses T1, ParB. Put plainly: ITC; also CTP hydrolysis (malachite green), N-gate cross-linking and BLI DNA loading. The data set is classed as binding. For orientation: ITC needs no label: the signal is the heat of the interaction.
For data set [5], the target named is T3, ParB(E78Q). Nature of the data set: ITC; also N-gate cross-linking and BLI DNA loading; no appreciable hydrolysis. The class given is binding.
Data set [6] deals with T2, ParB(E111Q). Described as above. The class given is binding.
For data set [7], the target named is T4, ParB(T22C, E78Q)-HT, P26497.
T4 chain: T1 sequence (P26497 1-282) with T22C, E78Q
Put plainly: in vivo BMOE cysteine cross-linking (SDS-PAGE, HaloTag TMR in-gel fluorescence, band quantification). Conditions: chain shown with the change, read off a plot.

Data set [8] concerns the molecule itself. Put plainly: cross-linking; in vitro BMOE (1 mM) cysteine cross-linking, 10 uM ParB, with or without 1 mM CTP or CTPγS and 1 uM 40-bp parS DNA, 150 mM NaCl, 50 mM tris-HCl pH 7.5, 5 mM MgCl2, room temperature; SDS-PAGE, Coomassie.
Data set [9] has as its target T5, ParB(R105C, H133C, E78Q)-HT, P26497.
T5 chain: T1 sequence (P26497 1-282) with E78Q, R105C, H133C
Put plainly: in vivo BMOE cysteine cross-linking (SDS-PAGE, HaloTag TMR in-gel fluorescence, band quantification). Conditions: chain shown with the change, Inter XL plus Inter 2XL species, read off a plot.

Data set [10] concerns the target T6, ParB(R105C, H133C, E111Q)-HT, P26497.
T6 chain: T1 sequence (P26497 1-282) with R105C, E111Q, H133C
The data set is described as above. Conditions: chain shown with the change, Inter XL plus Inter 2XL species, read off a plot.

In data set [11] the target is T7, ParB(T22C, E111Q)-HT, P26497.
T7 chain: T1 sequence (P26497 1-282) with T22C, E111Q
Described as above. As to conditions: chain shown with the change, read off a plot.

[12] abbreviates: parS: Δ8 (strain lacking the 8 parS sites).

Numbering of substitutions follows the chain as printed. Numbers in names are those of the source.

Turning to `Nc1ccn([C@@H]2O[C@H](COP(=O)(O)OP(=O)(O)OP(O)(O)=S)[C@@H](O)[C@H]2O)c(=O)n1` [CTPγS], the “BLI of ParB loading on and dissociation from parS DNA with nucleotide; N-gate cr” value in data set [1] is “differences in the dissociation rates between wild-type and EQ proteins were eliminated when CTPγS was used instead of CTP”. In addition, the “N-gate closure by BMOE cross-linking (T22C); BLI DNA loading” value was “we found that the EQ mutants supported N-gate closure equally well with CTP and CTPγS” in data set [2]; “we found that the EQ mutants supported N-gate closure equally well with CTP and CTPγS” in data set [3].
With `Nc1ccn([C@@H]2O[C@H](COP(=O)(O)OP(=O)(O)OP(=O)(O)O)[C@@H](O)[C@H]2O)c(=O)n1` [CTP], the Kd in [4], in data set [5] and in data set [6] was 5 to 8 µM throughout.

B1: ParB(T22C, E78Q) (natural protein, B. subtilis, UniProt P26497 1-282, looked up)
chain: T1 sequence (P26497 1-282) with T22C, E78Q
notes: ParB, B. subtilis, untagged recombinant protein, CTP hydrolysis-defective mutant with the T22C reporter cysteine; source: E. coli BL21-Gold (DE3), purified (ammonium sulfate, heparin, HiTrap SP, Superdex 200)
Turning to B1, the other: fraction of cross-linked dimers in [7] (N-N XL species) was found to be 0.57. The other: fraction of cross-linked species was found to be 0.72 in data set [7] (parS: All) and 0.52 in [7] (setting [12]). In data set [8], the binding result is recorded as “binds”.

B2: ParB-HT (wt) R105C; H133C; E78Q (protein)
chain: T1 sequence (P26497 1-282) with E78Q, R105C, H133C
As to B2, the other: fraction of cross-linked dimers in data set [9] amounted to 0.77.

B3: ParB(A102C, H133C) (natural protein, B. subtilis, UniProt P26497 1-282, looked up)
chain: T1 sequence (P26497 1-282) with A102C, H133C
notes: ParB, B. subtilis, untagged recombinant protein with cysteines at the N-M interface; source: E. coli BL21-Gold (DE3), purified (ammonium sulfate, heparin, HiTrap SP, Superdex 200)
Consider B3, for which the binding result in [8] is listed as “binds”.

B4: ParB(R105C, H133C) (natural protein, B. subtilis, UniProt P26497 1-282, looked up)
chain: T1 sequence (P26497 1-282) with R105C, H133C
notes: as for B3
Consider B4, for which the binding result in [8] is reported as “binds”.

B5: ParB-HT (wt) R105C; H133C; E111Q (protein)
chain: T1 sequence (P26497 1-282) with R105C, E111Q, H133C
Take B5: the other: fraction of cross-linked dimers in [10] worked out at 0.2.

B6: ParB(T22C) (natural protein, B. subtilis, UniProt P26497 1-282, looked up)
chain: T1 sequence (P26497 1-282) with T22C
notes: ParB, B. subtilis, untagged recombinant protein with a cysteine at the N-gate; source: E. coli BL21-Gold (DE3), purified (ammonium sulfate, heparin, HiTrap SP, Superdex 200)
In the case of B6, in data set [8], the binding result is “binds”.

B7: ParB(T22C, E111Q) (natural protein, B. subtilis, UniProt P26497 1-282, looked up)
chain: T1 sequence (P26497 1-282) with T22C, E111Q
notes: as for B1
B7 displayed an other: fraction of cross-linked dimers in data set [11] (N-N XL species) of 0.36. In addition, the values for the other: fraction of cross-linked species in data set [11] (parS: All) and in data set [11] (setting [12]) were 0.49 and 0.45, respectively. The binding result in data set [8] was “binds”.
